We go through five molecules from US20150297748A1 (Daiichi Sankyo, published 2015).

Assay [1] addresses T1, CD70 (UniProt P32970 1-193, limits assumed).
T1 sequence (looked up): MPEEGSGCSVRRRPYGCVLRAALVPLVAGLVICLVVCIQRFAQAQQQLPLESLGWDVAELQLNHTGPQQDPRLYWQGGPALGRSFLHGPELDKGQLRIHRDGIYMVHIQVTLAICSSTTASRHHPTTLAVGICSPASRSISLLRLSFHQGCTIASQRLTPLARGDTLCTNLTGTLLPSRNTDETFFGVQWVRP
Put plainly: cell-based or functional assay.

Assay [2] has as its target T2, human B7-H3 variant 1 (human, UniProt Q5ZPR3 27-534).
T2 construct: also called 4Ig-B7-H3
T2 sequence: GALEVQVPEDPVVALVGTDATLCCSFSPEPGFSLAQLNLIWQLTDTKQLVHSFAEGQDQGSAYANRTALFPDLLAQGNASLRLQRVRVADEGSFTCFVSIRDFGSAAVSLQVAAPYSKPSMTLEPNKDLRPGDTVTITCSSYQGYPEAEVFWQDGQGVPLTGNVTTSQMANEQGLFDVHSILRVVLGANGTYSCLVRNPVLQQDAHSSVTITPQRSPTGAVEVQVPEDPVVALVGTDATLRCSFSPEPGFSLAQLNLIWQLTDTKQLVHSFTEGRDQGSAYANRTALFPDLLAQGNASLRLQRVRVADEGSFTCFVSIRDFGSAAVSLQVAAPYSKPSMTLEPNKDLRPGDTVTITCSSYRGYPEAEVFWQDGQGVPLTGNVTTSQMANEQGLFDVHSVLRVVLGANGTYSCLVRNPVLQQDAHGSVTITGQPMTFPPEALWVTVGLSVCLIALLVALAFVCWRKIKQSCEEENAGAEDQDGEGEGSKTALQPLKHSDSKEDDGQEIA
Put plainly: flow cytometry: 10 µg/mL M30 on CCRF-CEM clones transfected with pcDNA3.1-B7-H3, detected with fluorescein-conjugated goat anti-mouse IgG. As for the experimental part:
Flow cytometry was used for confirming B7-H3 expression in each recovered clone. Specifically, each recovered clone was washed twice with PBS containing 5% FBS, thereafter suspended by the addition of PBS containing 5% FBS and 10 μg/mL M30, and left standing at 4° C. for 30 minutes. The clone was washed twice with PBS containing 5% FBS, thereafter suspended by the addition of Fluorescein-conjugated goat IgG fraction to mouse IgG (Whole Molecule) (455493, manufactured by ICN Pharmaceuticals, Inc.) diluted 1000-fold with PBS containing 5% FBS, and left standing at 4° C. for 30 minutes. The clone was washed twice with PBS containing 5% FBS, thereafter resuspended in PBS containing 5% FBS, and detected by using a flow cytometer (FC500: Beckman Coulter, Inc.).
In general terms: In flow cytometry, cells or beads pass a laser one at a time.

In assay [3] the target is CD33 (UniProt P20138 18-364, limits assumed). The assay is described as follows: cell-based or functional assay.
Sequence of CD33 (P20138 18-364 limits assumed): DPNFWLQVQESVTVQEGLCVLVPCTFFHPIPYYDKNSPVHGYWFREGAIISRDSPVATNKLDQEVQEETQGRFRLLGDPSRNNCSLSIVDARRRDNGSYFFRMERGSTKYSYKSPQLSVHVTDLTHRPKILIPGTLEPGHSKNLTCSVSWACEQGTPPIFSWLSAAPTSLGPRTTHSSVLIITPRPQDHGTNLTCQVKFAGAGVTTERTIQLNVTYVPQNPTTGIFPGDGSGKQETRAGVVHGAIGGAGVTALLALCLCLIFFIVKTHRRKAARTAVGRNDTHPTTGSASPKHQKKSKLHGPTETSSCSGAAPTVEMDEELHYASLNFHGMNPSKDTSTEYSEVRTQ

B1: Antibody-drug conjugate (10) (antibody, V domains shown)
VH: QVQLVQSGAEVKKPGASVKVSCKASGYTFTNYGMNWVRQAPGQGLKWMGWINTYTGEPTYADAFKGRVTMTRDTSISTAYMELSRLRSDDTAVYYCARDYGDYGMDYWGQGTTVTVSS
VL: DIVMTQSPDSLAVSLGERATINCRASKSVSTSGYSFMHWYQQKPGQPPKLLIYLASNLESGVPDRFSGSGSGTDFTLTISSLQAEDVAVYYCQHSREVPWTFGQGTKVEIKR
modifications: drug-linker 6-maleimidohexanoyl-GGFG-NH-(CH2)3-C(=O)-exatecan (compound of Process 3 of Example 2) on cysteines of the reduced hinge disulfide bonds; average 3.2 per antibody molecule; positions not given
As for B1, the “IC50, cytotoxic activity against the U251 cells” value in assay [1] was below 1 nM.

B2: Antibody-drug conjugate (11) (antibody, V domains shown)
VH: B1 VH
VL: B1 VL
modifications: drug-linker 6-maleimidohexanoyl-GGFG-NH-(CH2)3-C(=O)-exatecan (compound of Process 3 of Example 2) on cysteines of the reduced hinge disulfide bonds; average 3.6 per antibody molecule; positions not given
In the case of B2, the “IC50, cytotoxic activity against the U251 cells” value in assay [1] was below 1 nM.

B3: M30 antibody (antibody, mouse IgG2a, kappa, V domains shown)
VH: EVQLQQSGPELVKPGASVKMSCKASGYTFTNYVMHWVKQKPGQGLEWIGYINPYNDDVKYNEKFKGKATQTSDKSSSTAYMELSSLTSEDSAVYYCARWGYYGSPLYYFDYWGQGTTLTVSS
VL: QIVLSQSPTILSASPGEKVTMTCRASSRLIYMHWYQQKPGSSPKPWIYATSNLASGVPARFSGSGSGTSYSLTISRVEAEDAATYYCQQWNSNPPTFGTGTKLELKR
notes: Mouse monoclonal antibody produced by the B7-H3 hybridoma M30
As for B3, in assay [2], the binding result is listed as “binds”.

B4: Antibody-drug conjugate (9) (antibody, V domains shown)
VH: EVQLVQSGAEVKKPGSSVKVSCKASGYTITDSNIHWVRQAPGQSLEWIGYIYPYNGGTDYNQKFKNRATLTVDNPTNTAYMELSSLRSEDTAFYYCVNGNPWLAYWGQGTLVTVSS
VL: DIQLTQSPSTLSASVGDRVTITCRASQSLDNYGIRFLTWFQQKPGKAPKLLMYAASNQGSGVPSRFSGSGSGTEFTLTISSLQPDDFATYYCQQTKEVPWSFGQGTKVEVKR
modifications: drug-linker 6-maleimidohexanoyl-GGFG-NH-(CH2)3-C(=O)-exatecan (compound of Process 3 of Example 2) on cysteines of the reduced hinge disulfide bonds; average 3.7 per antibody molecule; positions not given
For B4, in assay [3], the “IC50, cytotoxic activity against the HL-60 cells” value was below 0.1 nM.

B5: Antibody-drug conjugate (25) (antibody, V domains shown)
VH: B4 VH
VL: B4 VL
modifications: drug-linker 3-maleimidopropanoyl-NH-(CH2CH2O)2-CH2CH2-C(=O)-GGFG-NH-(CH2)3-C(=O)-exatecan (compound of Process 1 of Example 14) on cysteines of the reduced hinge disulfide bonds; average 7.3 per antibody molecule; positions not given
In the case of B5, the “IC50, cytotoxic activity against the NOMO-1 cells” value in assay [3] is below 0.1 nM.
